The target in test [1] is T1, hPD-L1(ECD)-His (human, UniProt Q9NZQ7). Nature of the test: SPR. Background: SPR reads the build-up and loss of mass on a sensor chip optically.
Test [2] concerns the target T1, hPD-L1(ECD)-His. Description: SPR. This is another data set of the same source.
Test [3] addresses T1, hPD-L1(ECD)-His. Nature of the test: SPR. The source holds these as a separate data set.
Test [4] addresses T1, hPD-L1(ECD)-His. Description: SPR supernatant.
The target in test [5] is T1, hPD-L1(ECD)-His. Nature of the test: SPR. This is another data set of the same source.
The target in test [6] is T2, human PD-L1 full length (on CHO cells) (human, UniProt Q9NZQ7). Description: FACS. A general note: A flow cytometer gives signals particle by particle.
T2 sequence (Q9NZQ7 19-238): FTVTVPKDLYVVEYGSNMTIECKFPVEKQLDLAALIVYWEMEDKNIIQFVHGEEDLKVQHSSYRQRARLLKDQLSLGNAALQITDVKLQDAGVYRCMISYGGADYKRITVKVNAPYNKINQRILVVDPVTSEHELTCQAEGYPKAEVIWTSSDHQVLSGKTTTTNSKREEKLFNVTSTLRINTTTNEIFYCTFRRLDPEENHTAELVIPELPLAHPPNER
In another test the target is cPD-L1(ECD)-His (cynomolgus). Description: ELISA. In general terms: In an ELISA, binding on a coated surface is turned into a signal by an enzyme label.
Chain of cPD-L1(ECD)-His (cynomolgus) (chain, as listed by the source): as the sequence (Q9NZQ7 19-238) above, with A33T, A34S, S62N, R68Q, Q82R, F173L, T185A, T192I, H215L counted along it
The target in test [7] is T1, hPD-L1(ECD)-His. Nature of the test: ELISA.
The target in test [8] is T2, human PD-L1 full length (on CHO cells). Nature of the test: competition FACS vs CD80.
The target is the same in test [9]. Description: competition FACS vs PD-1.

As a reminder, the Kd is the equilibrium constant for the complex coming apart. A high value points to a looser complex. Broadly, the EC50 is the concentration at which the effect is half-maximal. A word on the IC50: it is the point on the concentration scale where inhibition reaches its midpoint.

T1 sequence (Q9NZQ7 19-238): as the sequence (Q9NZQ7 19-238) above

B1: ALGA105S PD-L1 arm (antibody, V domains shown)
VH: EVQLVQSGAEVKKPGATVKISCKVSGFNIEDTYIYWVQQAPGKGLEWMGWIDPANYNTKYDPRFQDRVTITVDTSTDTAYMELSSLRSEDTAVYYCARGLRLLMDYWGQGTTVTVSS
VL: DIQLTQSPSFLSASVGDRVTITCKASQNVHTSLAWYQQKPGKSPKLLIYLASNRHTGVPSRFSGSGSGTEFTLTISSLQPEDFATYYCLQHWNYPLTFGQGTKLEIKR
As for B1, the Kd with hPD-L1(ECD)-His [1] and in the test with hPD-L1(ECD)-His [2] was 0.824 nM each time.

B2: ALGA105X PD-L1 arm (antibody, V domains shown)
VH: EVQLVQSGAEVKKPGATVKISCKVSGFNIEDTYIYWVQQAPGKGLEWMGWIDPANYNTKYDPRFQDRVTITVDTSTDTAYMELSSLRSEDTAVYYCARGLRLLMDYWGQGTTVTVSS
VL: DIQLTQSPSFLSASVGDRVTITCKASQNVHTSLAWYQQKPGKSPKLLIYLASNRHTGVPSRFSGSGSGTEFTLTISSLQPEDFATYYCLQHWNYPLTFGQGTKLEIKR
Turning to B2, the Kd with hPD-L1(ECD)-His [1] and with hPD-L1(ECD)-His [2] was 0.822 nM in each case.

B3: PD-L1-1.168.15-z3-uIgG1K (antibody, V domains shown)
VH: EVQLVQSGAEVKKPGATVKISCKVSGFNIEDTYIYWVQQAPGKGLEWMGWIDPANYNTKYDPRFQDRVTITVDTSTDTAYMELSSLRSEDTAVYYCARGLRLLMDYWGQGTTVTVSS
VL: DIQLTQSPSFLSASVGDRVTITCKASQNVHTSLAWYQQKPGKAPKLLIYLASNRHTGVPSRFSGSGSGTEFTLTISSLQPEDFATYYCLQHWNYPLTFGQGTKLEIKR
For B3, the values for the Kd with hPD-L1(ECD)-His [3] and in the test with hPD-L1(ECD)-His [4] were 0.876 nM and 0.837 nM, respectively.

B4: PD-L1-1.168.15-z4-uIgG1K (antibody, V domains shown)
VH: EVQLVQSGAEVKKPGATVKISCKVSGFNIEDTYIYWVQQAPGKGLEWMGWIDPANYNTKYDPRFQDRVTITVDTSTDTAYMELSSLRSEDTAVYYCARGLRLLMDYWGQGTTVTVSS
VL: DIQLTQSPSFLSASVGDRVTITCKASQNVHTSLAWYQQKPGKSPKLLIYLASNRHTGVPSRFSGSGSGTEFTLTISSLQPEDFATYYCLQHWNYPLTFGQGTKLEIKR
As to B4, the dissociation constant (Kd) with hPD-L1(ECD)-His [3] worked out at 0.613 nM; with hPD-L1(ECD)-His [2] it was 0.647 nM; in the test with hPD-L1(ECD)-His [4] it was 0.775 nM.

B5: PD-L1-1.168.15 (antibody, V domains shown)
VH: EVQLQQSGAELVKPGASVKLSCTVSGFNIEDTYIYWVKQRPEQGLEWIGWIDPANYNTKYDPRFQDKATVTVDTSSNTAYMHLSSLTSEDTAVYYCARGLRLLMDYWGQGTSVTVSS
VL: DIVMTQSQKFMSSSVGDRVSITCKASQNVHTSLAWYQQRPGQSPKALIYLASNRHTGVPDRFTGSGSGTDFTLTISNVQSEDLADYFCLQHWNYPLTFGAGTKLELRR
On to B5, for which the equilibrium dissociation constant (Kd) in the test with hPD-L1(ECD)-His [5] is 0.295 nM. Further, the EC50 came out at 1.02 nM in [6], 0.38 nM with cPD-L1(ECD)-His and 0.028 nM with hPD-L1(ECD)-His [7]. In addition, the half-maximal inhibitory concentration (IC50) in [8] worked out at 2.07 nM; in test [9] it was 3 nM.

B6: PD-L1-1.168.15-xIgG1K (antibody, V domains shown)
VH: EVQLQQSGAELVKPGASVKLSCTVSGFNIEDTYIYWVKQRPEQGLEWIGWIDPANYNTKYDPRFQDKATVTVDTSSNTAYMHLSSLTSEDTAVYYCARGLRLLMDYWGQGTSVTVSS
VL: DIVMTQSQKFMSSSVGDRVSITCKASQNVHTSLAWYQQRPGQSPKALIYLASNRHTGVPDRFTGSGSGTDFTLTISNVQSEDLADYFCLQHWNYPLTFGAGTKLELRR
On to B6, for which the figures for the Kd with hPD-L1(ECD)-His [3] and with hPD-L1(ECD)-His [4] were 0.275 nM and 0.379 nM, respectively.

The record behind these values is patent US20260373285 (published 2026).
